In assay [1] the target is T1, human LIV-1 (human, UniProt Q13433 29-755).
T1 sequence (looked up): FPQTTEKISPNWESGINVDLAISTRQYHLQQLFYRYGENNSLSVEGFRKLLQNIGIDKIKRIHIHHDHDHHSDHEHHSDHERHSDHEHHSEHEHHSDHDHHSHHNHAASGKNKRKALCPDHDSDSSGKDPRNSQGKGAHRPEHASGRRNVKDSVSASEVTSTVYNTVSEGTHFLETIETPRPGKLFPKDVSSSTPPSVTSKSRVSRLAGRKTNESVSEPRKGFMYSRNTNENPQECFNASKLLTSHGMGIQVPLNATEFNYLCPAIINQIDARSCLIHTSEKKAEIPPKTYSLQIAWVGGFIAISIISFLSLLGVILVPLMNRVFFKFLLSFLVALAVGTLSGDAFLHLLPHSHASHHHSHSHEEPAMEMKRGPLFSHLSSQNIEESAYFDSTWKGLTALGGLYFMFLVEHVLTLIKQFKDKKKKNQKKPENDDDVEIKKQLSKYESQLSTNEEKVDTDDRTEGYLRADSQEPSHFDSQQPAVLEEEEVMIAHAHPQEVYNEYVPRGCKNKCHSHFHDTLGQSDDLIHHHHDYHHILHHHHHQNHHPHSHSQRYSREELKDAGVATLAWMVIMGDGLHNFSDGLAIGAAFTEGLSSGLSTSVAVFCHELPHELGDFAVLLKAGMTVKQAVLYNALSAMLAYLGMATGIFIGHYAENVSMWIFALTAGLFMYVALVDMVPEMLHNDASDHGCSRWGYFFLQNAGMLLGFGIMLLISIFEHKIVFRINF
Description: cell-based or functional assay.

The target of assay [2] is T1, human LIV-1. Description: cell-based or functional assay. The source holds these as a separate data set.
Assay [3] has as its target T2, cynomolgus LIV-1 (cynomolgus, UniProt A0A2K5WH46 30-741). Description: FACS, HEK293/Cyno_LIV-1 cells. The procedure:
(§1) In this example, cell based binding of chimeric Abs on human and cyno LIV-1 over-expressing HEK 293 cells were assessed using flow cytometry.
(§2) Briefly, cells were incubated with chimeric Abs (from 100 nM, 5 folds dilution, 8 points). After incubation at 4° C. for 60 minutes, the cells were washed with 2% FBS/PBS buffer twice, then stained with fluorescent conjugated secondary antibody at 4° C. for 30 minutes. After that the cells were washed twice and resuspended in 80 μL of 2% FBS/PBS buffer. Fluorescent signal of binding was detected using Agilent. The EC50 was calculated using the GraphPad Software (LaJolla, CA).
(In general: A flow cytometer gives signals particle by particle.)

The target of assay [4] is T1, human LIV-1. Description: FACS, HEK293/H_LIV-1 cells. How it is done: as §1, §2
Assay [5] has as its target T1, human LIV-1. Description: FACS, human LIV-1 cells. How it is done:
In this example, cell based binding of humanized antibodies (hu Abs) on human LIV-1-expressing cells were assessed using flow cytometry.
Cell based binding of hu-Abs on human LIV-1 expressing cells were assessed using flow cytometry. Briefly, the HEK293/H_LIV-1 cells were incubated with hu-Abs (from 100 nM, 6 folds dilution, 8 points). After incubation at 4° C. for 60 minutes, the cells were washed with FACS buffer twice, then stained with fluorescent conjugated secondary antibody at 4° C. for 30 minutes. After that the cells were washed twice and analyzed by flow cytometry.

Assay [6] deals with T2, cynomolgus LIV-1. Description: FACS, cyno LIV-1 cells.
Target sequence in this assay (A0A2K5WH46 entry or part of it): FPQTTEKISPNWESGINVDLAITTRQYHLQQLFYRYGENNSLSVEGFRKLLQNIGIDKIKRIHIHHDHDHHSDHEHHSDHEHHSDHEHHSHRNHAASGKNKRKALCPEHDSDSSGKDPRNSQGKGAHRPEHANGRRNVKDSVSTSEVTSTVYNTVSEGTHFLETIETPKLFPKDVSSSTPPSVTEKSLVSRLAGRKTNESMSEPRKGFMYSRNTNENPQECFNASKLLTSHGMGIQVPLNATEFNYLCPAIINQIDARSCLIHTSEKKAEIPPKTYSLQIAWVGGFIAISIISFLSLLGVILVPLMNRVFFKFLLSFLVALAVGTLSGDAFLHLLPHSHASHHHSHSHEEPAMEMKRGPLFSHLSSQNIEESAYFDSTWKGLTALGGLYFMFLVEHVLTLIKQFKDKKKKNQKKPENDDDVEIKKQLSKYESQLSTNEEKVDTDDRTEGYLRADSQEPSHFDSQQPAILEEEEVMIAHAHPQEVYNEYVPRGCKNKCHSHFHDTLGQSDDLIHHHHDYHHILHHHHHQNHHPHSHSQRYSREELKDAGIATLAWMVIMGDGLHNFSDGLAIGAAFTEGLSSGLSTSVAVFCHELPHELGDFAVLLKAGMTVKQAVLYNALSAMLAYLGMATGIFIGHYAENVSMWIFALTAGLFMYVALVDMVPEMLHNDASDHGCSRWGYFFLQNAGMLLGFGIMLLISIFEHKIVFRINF

B1: 56B3E6 (antibody, V domains shown)
VH: EVQLQQSGAELVRSGASVKLSCTASGFNIKDYYIHWVKQRPEQGLEWIGWIDPENDDTEYAPKFQGKATMTADTSSNTAYLHLSSLTSEDTAVYYCPHGGGFRVFDSWGQGTTLTVSS
VL: DVLMTQTPLSLPVSLGDQASISCRSSQDIVHSNGNTYLEWYLQKPGQSPKLLIYKVSNRFSGVPDRFSGSGSGTDFTLKISRVEAEDLGVYYCFQGSHVPWTFGGGTKLEIK
notes: Tested as chimeric antibody
As to B1, in assay [1], the “Internalization EC50” value worked out at 5 nM and the “Internalization Top (RFU)” value was found to be 388000 RFU. Moreover, in assay [2], the “ADCC reporter EC50” value stood at 1.3 nM and the “ADCC reporter Top (RFU)” value is 52300 RFU. Further, in assay [3], the EC50 (commonly the midpoint of the concentration-response curve) stood at 0.21 nM and the “Top (MFI)” value was found to be 9280 MFI. For the same molecule, in assay [4], the EC50 was 0.13 nM and the “Top (MFI)” value was 13300 MFI.

B2: 72B12F1 (antibody, V domains shown)
VH: EVQLQQSGAELVKPGASVKLSCTASGFNIKDTYMHWVKQRPEQGLEWIGRIDPANGNTKNDPRFQGKATITADTSSNTAYLQLSRLTSEDTAVYYCAGGGITTVVPDHWGQGTTLTVSS
VL: DVVMTQTPLSLPVSLGDQASISCRSSQSLVHSNGNTYLQWYLQKPGQSPKLLIYKVSNRFSGVPDRFSGSGSGTDFTLKISRVEAEDLGVYFCSQSTHVPYTFGGGTKLEIK
notes: Tested as chimeric antibody
For the molecule B2, in assay [1], the “Internalization EC50” value stood at 7.2 nM and the “Internalization Top (RFU)” value came out at 353000 RFU. Moreover, in assay [3], the EC50 stood at 0.36 nM and the “Top (MFI)” value was 7470 MFI. Besides, in assay [4], the EC50 turned out to be 0.79 nM and the “Top (MFI)” value amounted to 10700 MFI.

B3: 69B3D6 (antibody, V domains shown)
VH: QVQLQQSGPELVKPGASVRISCKASGYTFTSYHMHWVKQRPGQGLEWIGWIYPGNVKNQSNEKFKGKATLTADKSSSTAYMQLSSLTSEDSAVYFCARSDITRAFFAYWGQGTLVTVSA
VL: DVLMTQTPLSLPVSLGDQASISCRSSQSIVHSNGNTYLEWYLQKPGQSPKLLIYKVSNRFSGVPDRFSGSGSGTDFTLKISRVEAEDLGVYYCFQGSHVPYTFGGGTKLEIK
notes: Tested as chimeric antibody
On to B3, for which, in assay [2], the “ADCC reporter EC50” value was found to be 25.3 nM and the “ADCC reporter Top (RFU)” value came out at 47200 RFU. Moreover, in assay [3], the EC50 was found to be 0.17 nM and the “Top (MFI)” value came to 6600 MFI. Further, in assay [4], the EC50 amounted to 0.18 nM and the “Top (MFI)” value is 11500 MFI.

B4: 290F10G10.p1.Z5 (antibody, V domains shown)
VH: EVQLVQSGAEVKKPGASVKVSCKASGYTFTSYWIHWVRQAPGQGLEWMGTIYPGDADTRSTQKFKDRVTVTADKSTSTVYMELSSLRSEDTAVYYCARSLIHDDYDKYYFDYWGQGTTVTVSS
VL: DIQMTQSPSSLSASVGDRVTITCKARQDINKYIAWYQQKPGKAPKLLIHYTSILQPGIPSRFSGSGSGRDYTFTISSLQPEDIATYYCLQYDYFFTFGGGTKVEIK
With B4, in assay [5], the EC50 was found to be 0.32 nM and the “Top (MFI)” value came to 7390 MFI. In assay [6], the EC50 was determined as 0.5 nM and the “Top (MFI)” value came to 7370 MFI.

B5: 290F10G10.p1.Z4 (antibody, V domains shown)
VH: EVQLVQSGAEVKKPGASVKVSCKASGYTFTSYWIHWVRQAPGQGLEWMGTIYPGDADTRSTQKFKDRVTVTADKSTSTVYMELSSLRSEDTAVYYCARSLIHDDYDKYYFDYWGQGTTVTVSS
VL: DIQMTQSPSSLSASVGDRVTITCKARQDINKYIAWYQQKPGKAPKLLIYYTSILQPGVPSRFSGSGSGRDYTFTISSLQPEDIATYYCLQYDYFFTFGGGTKVEIK
On to B5, for which the EC50 in assay [5] was found to be 0.24 nM; in assay [6], 0.34 nM. In addition, the “Top (MFI)” value in assay [5] worked out at 7790 MFI; in assay [6], 7140 MFI.

B6: 290F10G10.p1.Z8 (antibody, V domains shown)
VH: EVQLVQSGAEVKKPGASVKVSCKASGYTFTSYWIHWVRQAPGQGLEWIGTIYPGDADTRSTQKFKDKATVTADKSTSTVYMELSSLRSEDTAVYYCARSLIHDDYDKYYFDYWGQGTTVTVSS
VL: DIQMTQSPSSLSASVGDRVTITCKARQDINKYIAWYQQKPGKAPKLLIHYTSILQPGIPSRFSGSGSGRDYTFTISSLQPEDIATYYCLQYDYFFTFGGGTKVEIK
In the case of B6, in assay [5], the EC50 was determined as 0.27 nM and the “Top (MFI)” value came to 7540 MFI. In addition, in assay [6], a half-maximal response (EC50) required 0.36 nM and the “Top (MFI)” value is 7190 MFI.

B7: 290F10G10.p1.Z3 (antibody, V domains shown)
VH: EVQLVQSGAEVKKPGASVKVSCKASGYTFTSYWIHWVRQAPGQGLEWMGTIYPGDADTRSTQKFKDRVTMTADTSTSTVYMELSSLRSEDTAVYYCARSLIHDDYDKYYFDYWGQGTTVTVSS
VL: DIQMTQSPSSLSASVGDRVTITCKARQDINKYIAWYQHKPGKGPKLLIHYTSILQPGIPSRFSGSGSGRDYTFTISSLQPEDIATYYCLQYDYFFTFGGGTKVEIK
Consider B7, for which the results for the EC50 in assay [5] and in assay [6] were 0.27 nM and 0.4 nM, respectively. In addition, the results for the “Top (MFI)” value in assay [5] and in assay [6] were 7600 MFI and 6750 MFI, respectively.

B8: 290F10G10.p1.Z9 (antibody, V domains shown)
VH: EVQLVQSGAEVKKPGASVKVSCKASGYTFTSYWIHWVRQAPGQGLEWIGTIYPGDADTRSTQKFKDKATVTADKSTSTVYMELSSLRSEDTAVYYCARSLIHDDYDKYYFDYWGQGTTVTVSS
VL: DIQMTQSPSSLSASVGDRVTITCKARQDINKYIAWYQHKPGKGPKLLIHYTSILQPGIPSRFSGSGSGRDYTFTISSLQPEDIATYYCLQYDYFFTFGGGTKVEIK
Regarding B8, in assay [5], the midpoint of the response, the EC50, lay at 0.51 nM and the “Top (MFI)” value is 7940 MFI. In assay [6], the EC50 was found to be 0.68 nM and the “Top (MFI)” value was determined as 7630 MFI.

B9: 290F10G10.p1.Z6 (antibody, V domains shown)
VH: EVQLVQSGAEVKKPGASVKVSCKASGYTFTSYWIHWVRQAPGQGLEWMGTIYPGDADTRSTQKFKDRVTVTADKSTSTVYMELSSLRSEDTAVYYCARSLIHDDYDKYYFDYWGQGTTVTVSS
VL: DIQMTQSPSSLSASVGDRVTITCKARQDINKYIAWYQHKPGKGPKLLIHYTSILQPGIPSRFSGSGSGRDYTFTISSLQPEDIATYYCLQYDYFFTFGGGTKVEIK
Turning to B9, in assay [5], the EC50 was determined as 0.35 nM and the “Top (MFI)” value turned out to be 7420 MFI. For the same molecule, in assay [6], the EC50 worked out at 0.46 nM and the “Top (MFI)” value came out at 6890 MFI.

B10: 290F10G10.p1.Z1 (antibody, V domains shown)
VH: EVQLVQSGAEVKKPGASVKVSCKASGYTFTSYWIHWVRQAPGQGLEWMGTIYPGDADTRSTQKFKDRVTMTADTSTSTVYMELSSLRSEDTAVYYCARSLIHDDYDKYYFDYWGQGTTVTVSS
VL: DIQMTQSPSSLSASVGDRVTITCKARQDINKYIAWYQQKPGKAPKLLIYYTSILQPGVPSRFSGSGSGRDYTFTISSLQPEDIATYYCLQYDYFFTFGGGTKVEIK
As to B10, in assay [5], a half-maximal response (EC50) required 0.56 nM and the “Top (MFI)” value is 7540 MFI. Moreover, in assay [6], the EC50 was determined as 0.85 nM and the “Top (MFI)” value stood at 7190 MFI.

B11: 290F10G10.p1.Z7 (antibody, V domains shown)
VH: EVQLVQSGAEVKKPGASVKVSCKASGYTFTSYWIHWVRQAPGQGLEWIGTIYPGDADTRSTQKFKDKATVTADKSTSTVYMELSSLRSEDTAVYYCARSLIHDDYDKYYFDYWGQGTTVTVSS
VL: DIQMTQSPSSLSASVGDRVTITCKARQDINKYIAWYQQKPGKAPKLLIYYTSILQPGVPSRFSGSGSGRDYTFTISSLQPEDIATYYCLQYDYFFTFGGGTKVEIK
For the molecule B11, in assay [5], the EC50 was found to be 0.28 nM and the “Top (MFI)” value turned out to be 7680 MFI. For the same molecule, in assay [6], the concentration for a half-maximal effect (EC50) stood at 0.37 nM and the “Top (MFI)” value is 7150 MFI.

B12: 50H12B3 (antibody, V domains shown)
VH: QVQLKQSGPGLVQPSQSLSITCTVSGFSLTSYGVHWVRQSPGKGLEWLGVIWTGGTTDYNAAFKSRLSISKDNSKSQVFFKMNSLQANDTAIYYCARGPSSYWGQGTLVTVSA
VL: DIVMTQSQKFMSTSVGDRVSVTCKASQNVDTNVVWYQQKPGQSPKALIHSTSYRYSGVPDRFTGSGSGTDFTLTISNVQSEDLAEYFCQQYNNYPWTFGGGTKLEIK
notes: Tested as chimeric antibody
On to B12, for which, in assay [2], the “ADCC reporter EC50” value worked out at 0.2 nM and the “ADCC reporter Top (RFU)” value worked out at 95600 RFU. Besides, in assay [3], it took 0.21 nM to reach a half-maximal effect (EC50) and the “Top (MFI)” value turned out to be 35900 MFI. For the same molecule, in assay [4], it took 0.23 nM to reach a half-maximal effect (EC50) and the “Top (MFI)” value was 63000 MFI.

Values taken from US20240325555A1 (LANOVA MEDICINES, published 2024).
